We go through one substance from paper PMC2904422.

In the test the target is myelin and lymphocyte protein 2 (MAL2) (rat (endogenous in WIF-B)) (UniProt Q7TPB7). Kind of test: co-IP.

In turn, “polymeric immunoglobulin A-receptor (pIgA-R), mature form (from UniProt P15083 19-769)” displayed a percent of total pIgA-R coimmunoprecipitated (% of total pIgA-R) of 1.
